Data on one molecule can be found in patent publication US20230391872A1 (ANAPTYSBIO, published 2023).

The target in test [1] is T1, human BTLA on cells (stably transfected 293c18 cells; human peripheral blood T and B cells) (human, UniProt Q7Z6A9 31-289).
T1 construct: whole, on cells; the cells are named under assay; also called cell surface BTLA; full-length human BTLA
Briefly: flow cytometry, DyLight 650-labeled 6G3 IgG4 on human peripheral blood CD4+ T cells. On the procedure:
(§1) PBMCs were washed and incubated at 2×10⁷ cells/ml in FACS buffer (PBS, 1% BSA, 0.02% sodium azide) with Human BD Fc Block (2.5 μg/1×10⁶ cells, BD Biosciences) and LIVE/DEAD® Fixable Yellow Dead Cell Stain (30 μl, ThermoFisher Scientific) for 10 minutes on ice. Cells were washed once in FACS buffer, resuspended in FACS buffer at 1×10⁷ cells/ml and the following phenotyping antibodies added: Alexa Fluor 488-anti-human CD3E clone SK7, Brilliant Violet 421-anti-human CD4 clone OKT4, Brilliant Violet 785-anti-human CD8 clone SK1, and Brilliant Violet 570-anti-human CD20 clone 2H7 (50 μl each; all from BioLegend, Inc.). […] Samples were washed twice in FACS buffer, resuspended in 150 μl/well FACS buffer, and analyzed for fluorescence on a NovoCyte Flow Cytometer (ACEA Biosciences, Inc.). Data were analyzed using NovoExpress Software (ACEA Biosciences, Inc.). Median fluorescence intensities of anti-BTLA or isotype staining on gated CD4⁺ T cells (FIG. 4), CD8⁺ T cells (FIG. 4), or CD20⁺ B cells (FIG. 4) were graphed and curves fit with log(agonist) vs. response (three parameters) least squares fit for EC₅₀ calculation in GraphPad Prism (GraphPad Software, Inc.).

Test [2] addresses T1, human BTLA on cells (stably transfected …). In words: flow cytometry (MFI DyL650) on gated CD4+ T cells of human PBMC, DyLight 650-labelled antibody, three-parameter fit [left panel (Naive CD4+ T cells]. On the procedure:
as §1, with “Human peripheral blood mononuclear cells (PBMCs) were isolated by Histopaque (Sigma-Aldrich) density-gradient centrifugation of normal donor blood obtained from the San Diego Blood Bank (San Diego, CA). PBMCs” for “PBMCs”

B1: 6G3 IgG4 anti-BTLA antibody (APE10840 / APE12839 / APE13308) (antibody, V domains shown)
VH: QVQLVQSGAEVKKPGSSVKVSCKASGYVFSTSWMNWVRQAPGQGLEWMGRIYPGDADTNYVGKFKGRVTITADKSTTTAYMELSSLRSEDTAVYFCAKSGTFNFGNYRWYFDVWGKGTTVTVSS
VL: AIQLTQSPSSLSASVGDRVTITCRVSENIYSHLAWYQQKPGKAPKLLIYAATNLALGVPSRFSGSGSGTDYTLTISSLQPEDFATYYCQLFWGPPLTFGGGTKVEIKR
notes: Humanized antibody from a mouse hybridoma, tested as human IgG4 (detected with anti-human kappa); Some assays used labelled lots (DyLight 650, AF647, biotin, DyL488); also called 6G3 antibody; APE10840.03
For B1, the concentration for a half-maximal effect (EC50) in test [1] is around 2.4 nM; in test [2], 2.44 nM.
